The text below walks through data of patent US20230312651A1, “Cyclic Peptide, Peptide Complex, and Drug Composition Containing Said Cyclic Peptide and/or Said Peptide Complex” (The University of Tokyo, priority 2020, published 2023).

Sequences and labels used below:
B1: SEQ ID NO 7 (peptide)
peptide: Ac-YLRPRYKFWCGSGSGS
modifications: thioether (positions not given here); not fully specified (residue 1, bridges)
notes: In the selection it stood as a peptide-mRNA/cDNA conjugate joined through a puromycin linker
B2: SEQ ID NO 10 (peptide)
peptide: Ac-YRFWQTPRFRLCGSGSGS
modifications: thioether (positions not given here); not fully specified (residue 1, bridges)
notes: as for B1
B3: SEQ ID NO 11 (peptide)
peptide: Ac-YKYKFWAYIPTNCGSGSGS
modifications: thioether (positions not given here); not fully specified (residue 1, bridges)
notes: as for B1
B4: SEQ ID NO 13 (peptide)
peptide: Ac-YRLHQWINTFRCGSGSGS
modifications: thioether (positions not given here); not fully specified (residue 1, bridges)
notes: as for B1
B5: SEQ ID NO 8 (peptide)
peptide: Ac-YLQPKFKFWCGSGSGS
modifications: thioether (positions not given here); not fully specified (residue 1, bridges)
notes: as for B1
B6: SEQ ID NO 1 (peptide)
peptide: Ac-YRHNSYEASAFWCGSGSGS
modifications: thioether (positions not given here); not fully specified (residue 1, bridges)
notes: as for B1
B7: SEQ ID NO 5 (peptide)
peptide: Ac-YRHNSYEASTFWCGSGSGS
modifications: thioether (positions not given here); not fully specified (residue 1, bridges)
notes: as for B1
B8: SEQ ID NO 6 (peptide)
peptide: Ac-YRHNSYEASAFCCGSGSGS
modifications: thioether (positions not given here); not fully specified (residue 1, bridges)
notes: as for B1
B9: SEQ ID NO 2 (peptide)
peptide: Ac-YRHNSYKASAFWCGSGSGS
modifications: thioether (positions not given here); not fully specified (residue 1, bridges)
notes: as for B1
B10: SEQ ID NO 3 (peptide)
peptide: Ac-YRHSSYEASAFWCGSGSGS
modifications: thioether (positions not given here); not fully specified (residue 1, bridges)
notes: as for B1
B11: SEQ ID NO 4 (peptide)
peptide: Ac-YRHDSYEASAFWCGSGSGS
modifications: thioether (positions not given here); not fully specified (residue 1, bridges)
notes: as for B1
B12: SEQ ID NO 9 (peptide)
peptide: Ac-YAHEGYKNSAFWCGSGSGS
modifications: thioether (positions not given here); not fully specified (residue 1, bridges)
notes: as for B1
B13: SEQ ID NO 12 (peptide)
peptide: Ac-YRIHPWITTYRCGSGSGS
modifications: thioether (positions not given here); not fully specified (residue 1, bridges)
notes: as for B1

No end group written: not given here.

In the test the target is T1, extracellular domain of hTrkB (human, UniProt Q16620 32-430).
T1 construct: extracellular domain; Immobilised on a Ni2+-treated NTA sensor chip through the His6-tag for SPR; fixed on His pulldown Dynabeads at 200 nM for the RaPID selection; also called human TrkB; TrkB extracellular domain; not shown: His6-tag
T1 sequence (Q16620 32-430): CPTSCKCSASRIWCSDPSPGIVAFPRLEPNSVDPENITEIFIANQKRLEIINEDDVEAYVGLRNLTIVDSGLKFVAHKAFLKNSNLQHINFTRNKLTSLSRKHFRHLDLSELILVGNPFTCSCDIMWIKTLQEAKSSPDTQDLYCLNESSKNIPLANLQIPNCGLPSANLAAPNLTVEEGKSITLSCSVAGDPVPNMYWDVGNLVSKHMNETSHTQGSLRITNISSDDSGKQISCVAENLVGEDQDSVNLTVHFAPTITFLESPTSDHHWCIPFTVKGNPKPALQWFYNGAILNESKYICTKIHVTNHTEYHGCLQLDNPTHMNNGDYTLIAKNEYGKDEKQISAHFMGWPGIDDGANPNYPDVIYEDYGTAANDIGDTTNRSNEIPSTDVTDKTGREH
Kind of test: RaPID affinity selection, 5 rounds, on beads carrying TrkB extracellular domain; sequencing. The procedure: Next, the peptide-mRNA/cDNA conjugate libraries thus obtained were subjected to affinity selection. First, as control selection, the peptide-mRNA/cDNA conjugate libraries were passed three times through His pulldown Dynabeads (Life Technologies) (each passage for 10 minutes under the condition of 4° C.). The above process is called “pre-clearance” or negative selection and is performed to remove undesired binding to beads. […] The process is called “positive selection”.
By heating at 95° C. for 5 minutes, the cDNAs were eluted from the beads and a portion of the eluted cDNAs was evaluated by quantitative PCR using Sybr Green I and thermal cycler (LightCycler (Roche)). The remaining portion of the cDNAs was amplified by PCR and used for the transcription of the mRNA library used for affinity selection in the next round.
One round consisted of preparation of a library, pre-clearance, and positive selection, and the round was performed 5 times. […] The collected cDNAs were amplified by PCR, purified using a column (NucleoSpin (Machery-Nagel)), and sequenced using a high through-put sequencer (MiSeq (Illumina)). Data analysis was performed using a software (CLC Sequence Viewer 7 (Qiagen)).
For B1, the binding result is “binds”.
B2: the binding result is “binds”.
On to B3, for which the binding result is “binds”.
Then B4, with “binds”; and B5, with “binds”; and B6, with “binds”.
On to B7, for which the binding result is listed as “binds”.
Turning to B8, the binding result is “binds”.
With B9, the binding result is reported as “binds”.
As to B10, the binding result is “binds”.
In the case of B11, the binding result is given as “binds”.
For the molecule B12, the binding result was “binds”.
In the case of B13, the binding result was “binds”.
